Target: T1, HIC2 ZF2-5 (Homo sapiens, UniProt Q96JB3 503-615)
T1 sequence: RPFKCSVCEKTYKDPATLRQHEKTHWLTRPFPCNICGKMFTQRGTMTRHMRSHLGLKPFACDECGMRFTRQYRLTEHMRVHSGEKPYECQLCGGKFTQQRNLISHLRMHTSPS
Experiment: X-ray crystallography

B1: +55 enhancer HIC2 motif-2/GATA 16-mer (dsDNA)
DNA 1: AGATAATGCCAACAGT
DNA 2: ACTGTTGGCATTATCT
Q: Does B1 bind?
A: Result: binds

Reference: PMC9940634
